In the supplement of paper PMC10724198:
± gives the standard deviation of the averaged measurements.

system: Saccharomyces cerevisiae; assay: protein stability index of tFT-peptide fusion (C-terminal peptide) (PSI (0-1 scale)); higher = more stable (slower turnover); conditions: genetic background: wild type; temperature: 30 C
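Further: PSI is a weighted mean of sequencing reads over stability bins, variants kept only with over 10 reads, mCherry proximal and sfGFP distal, peptide attached via GGGS linker.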

| Sequence | protein stability index |
| --- | --- |
| FPILLASRPSSP | 0.662 ± 0.046 |
| PISPPLPRPSPR | 0.696 ± 0.012 |
| PLTNKTHRPPDK | 0.702 ± 0.0091 |
| PPRPLPPPRPSS | 0.691 ± 0.037 |
| GFWLVSCPWLLF | 0.612 ± 0.14 |
| SPPSFFRATRSN | 0.644 ± 0.096 |
| PPPPPPPSPLAP | 0.707 ± 0.015 |
| IKKKKKKENKRR | 0.741 ± 0.014 |
| PPLPFAISPPPA | 0.6624 ± 0.0017 |
| HWRCASLTLSAG | 0.8 ± 0.02 |
| RREGGRQRGGSG | 0.67 ± 0.063 |
| VFLVLFDRLLPL | 0.669 ± 0.0073 |
| DDRFNVGNLPQG | 0.672 ± 0.046 |
| NRGYRKDDKGMR | 0.689 ± 0.042 |
| RSWGRVCFGGVV | 0.657 ± 0.054 |
| DKKKNKDQKEKI | 0.731 ± 0.029 |
| PPDPPWPRSPPA | 0.588 ± 0.019 |
| INCDIIHRRKKG | 0.6462 ± 0.0042 |
| ARKRRRRGHDTE | 0.725 ± 0.19 |
| CGGRPPADLRLS | 0.69 ± 0.054 |
| SGTSDDWWPGVA | 0.785 ± 0.038 |
| QEVKLAPEHRLR | 0.675 ± 0.013 |
| PFPPPTDQTAHR | 0.728 ± 0.025 |
| PLLVLSLRLSPP | 0.664 ± 0.013 |
| LVRLNSHRYTSV | 0.613 ± 0.035 |
| TYRGKIVAPGVL | 0.656 ± 0.053 |

| Sequence | protein stability index |
| --- | --- |
| WFGAECVCVRGG | 0.762 ± 0.2 |
| QCIYVCKKTPTI | 0.679 ± 0.067 |
| GPPPPPPFPPLP | 0.708 ± 0.0076 |
| LRLIPPLTTFDY | 0.645 ± 0.098 |
| CGLRRRAGGGGV | 0.7 ± 0.024 |
| HPPHLSTPPYPP | 0.722 ± 0.047 |
| VFGSYFFIPFFL | 0.498 ± 0.016 |
| FRRYGKEAVDKD | 0.696 ± 0.011 |
| PPPPFPLPSPSL | 0.655 ± 0.022 |
| LIAGLNLASYGL | 0.643 ± 0.1 |
| YACFRYEYNRLR | 0.679 ± 0.029 |
| VRAHARPTKGKP | 0.682 ± 0.059 |
| RAGPPPPPSITL | 0.83 ± 0.085 |
| PPSPSLRSLPRP | 0.626 ± 0.064 |
| RRRAGSKEKQRK | 0.703 ± 0.019 |
| RPPFPPPPLPPP | 0.656 ± 0.031 |
| WGIQGIKFFVGA | 0.7111 ± 0.0032 |
| KKHNGHNHQNNF | 0.684 ± 0.019 |
| VSSFALDVGFHF | 0.638 ± 0.068 |
| TGREGARVGIGR | 0.687 ± 0.01 |
| AYSNVFLDPTPV | 0.69 ± 0.0097 |
| PPCGPPGPPIPP | 0.592 ± 0.026 |
| DPPFPSGPPLPL | 0.6742 ± 0.0061 |
| TGKRADGGAEGG | 0.686 ± 0.0086 |
| FTPLPHAHPPPP | 0.664 ± 0.0034 |
| GLVWGGCGTVGG | 0.768 ± 0.17 |

| Sequence | protein stability index |
| --- | --- |
| VSLVLESFFGRV | 0.719 ± 0.014 |
| DALGRSNGPPRV | 0.673 ± 0.027 |
| SFFSVQIQFGLS | 0.617 ± 0.012 |
| SPGVFQQRHHTY | 0.665 ± 0.087 |
| FLCRLILFSTPP | 0.602 ± 0.021 |
| EKRQNLKPMRTV | 0.686 ± 0.026 |
| LTWCGVSEAVIA | 0.50795 ± 0.00033 |
| PTQSDSTSTSRI | 0.69 ± 0.016 |
| LTATNEARNIDH | 0.659 ± 0.027 |
| LGNPVLRFILEK | 0.597 ± 0.094 |
| KIDKNHGILPNY | 0.679 ± 0.035 |
| GGDGGLVMGGGN | 0.684 ± 0.018 |
| PHSPSPSWFWPR | 0.76 ± 0.058 |
| GGGRGVVVTCST | 0.713 ± 0.038 |
| LSSLLFSPLPPS | 0.7593 ± 0.0019 |
| LLFLPRPPVCSR | 0.649 ± 0.11 |
| SSLPSTGPRPLH | 0.582 ± 0.038 |
| LPHLDPPPLPPP | 0.6386 ± 0.0052 |
| RGPSGARRQPGL | 0.6658 ± 0.0044 |
| VCGLLGGVWLCL | 0.611 ± 0.021 |
| RMKGTNKEGKKK | 0.693 ± 0.054 |
| YNDGSNPYLSRS | 0.722 ± 0.065 |
| LVRASDPLSVTI | 0.689 ± 0.073 |
| PRELFGFNLAQP | 0.692 ± 0.011 |
| SEPADGRDRMAE | 0.6885 ± 0.0054 |
| SFSIPTCSVPLT | 0.687 ± 0.096 |

| Sequence | protein stability index |
| --- | --- |
| GIGVGGIHGGIL | 0.7547 ± 0.0044 |
| KNTNQKKKKKNT | 0.718 ± 0.044 |
| PQWFPNYLRLLL | 0.517 ± 0.041 |
| RALVIKREALQI | 0.59 ± 0.03 |
| LRGVSGTLSSSC | 0.6733 ± 0.0045 |
| RPPFRVYDYPLL | 0.671 ± 0.039 |
| LQWAAGLRTTSP | 0.692 ± 0.071 |
| PAFGCTSRPFPG | 0.711 ± 0.031 |
| YHLISSVRLPSS | 0.731 ± 0.033 |
| RLSVWTFCSMVW | 0.555 ± 0.0085 |
| LLPPAPLPPSLG | 0.722 ± 0.016 |
| EPPELSISALGF | 0.6865 ± 0.0021 |
| SLPKSSLFAPHL | 0.715 ± 0.023 |
| PSSWPPPPPPLP | 0.614 ± 0.022 |
| RKMYRIKKEIKI | 0.641 ± 0.098 |
| SIVGGVVRVLCG | 0.603 ± 0.048 |
| TLDKGRFSPAHL | 0.754 ± 0.049 |
| YAVGSAGLGVGL | 0.697 ± 0.1 |
| APARPPVTLSTN | 0.671 ± 0.013 |
| LEGILFGPKIAT | 0.6227 ± 0.0049 |
| HHLPPRTPPHNS | 0.657 ± 0.037 |
| RHENKKDKIRME | 0.701 ± 0.11 |
| PPPTPHPLRRTP | 0.735 ± 0.069 |
| TEYHIVTLPRRC | 0.625 ± 0.076 |
| GGVWAGEATGVQ | 0.666 ± 0.052 |
| GRVRYRGSRFLG | 0.656 ± 0.013 |

| Sequence | protein stability index |
| --- | --- |
| CWGAGGRTVING | 0.68 ± 0.034 |
| GCGGVWGRSEKY | 0.684 ± 0.019 |
| ALPLPLLACSPL | 0.6268 ± 0.0034 |
| LPAPAGPEPPRT | 0.6747 ± 0.00069 |
| GGLGREKLGGWR | 0.65 ± 0.091 |
| VPRGPRFHIILS | 0.594 ± 0.035 |
| LSTMPLFPSLHR | 0.731 ± 0.025 |
| WPLPRPEFCGAP | 0.6316 ± 0.0011 |
| PPPPSLAPRSAL | 0.724 ± 0.048 |
| SESKGAMCQRNA | 0.6475 ± 0.0054 |
| IALPPPGILDSA | 0.683 ± 0.16 |
| SSGRWLFLPPCP | 0.899 ± 0.13 |
| PPPPPLPRSSLS | 0.6968 ± 0.0041 |
| TTPPPPPRHPAP | 0.696 ± 0.019 |
| RNIRINKKVKDI | 0.594 ± 0.032 |
| VVAVTTIDSTHL | 0.682 ± 0.033 |
| LRGKLGNCLGLL | 0.733 ± 0.028 |
| PFFSSRLFTLSL | 0.731 ± 0.015 |
| WSVGYLSVALYR | 0.615 ± 0.014 |
| GGRDVGEMVDLQ | 0.758 ± 0.14 |
| LFPYPPASALLR | 0.662 ± 0.019 |
| GLSLLVDLNVWF | 0.569 ± 0.034 |
| QCNTFNKEKPER | 0.694 ± 0.021 |
| RGWWVLCGGGGG | 0.57 ± 0.044 |
| VEFVSKSLGVGW | 0.6756 ± 0.0053 |
| KRSNKGAKKKGK | 0.672 ± 0.041 |

| Sequence | protein stability index |
| --- | --- |
| PTATMLFLTRTG | 0.702 ± 0.043 |
| GGGGEGPGKSPR | 0.669 ± 0.14 |
| SLAFIRFPSPSP | 0.668 ± 0.0083 |
| VALNCWGYQWMG | 0.689 ± 0.04 |
| GRWRCVYRGCGG | 0.646 ± 0.076 |
| LSFRPPLHPFAL | 0.695 ± 0.01 |
| SVWCRWGWSDWG | 0.795 ± 0.051 |
| RRRGREVCRCTE | 0.716 ± 0.046 |
| TPLPPEHLPRSR | 0.661 ± 0.031 |
| PPASLRRLLPPP | 0.654 ± 0.0066 |
| CPRRGSHLARLL | 0.621 ± 0.038 |
| PPLPPRPAPIPP | 0.663 ± 0.033 |
| FLARPIACPRRV | 0.701 ± 0.008 |
| KNQLKKPINKSK | 0.734 ± 0.13 |
| VGRWGGVSLGGR | 0.715 ± 0.09 |
| SPPSATTLRAPS | 0.641 ± 0.037 |
| FVRLFSGTLKSV | 0.687 ± 0.033 |
| LVLKLWNKFFVD | 0.65438 ± 0.00026 |
| NRMLRAQRKNRT | 0.689 ± 0.033 |
| APSTFRPPTPPS | 0.711 ± 0.03 |
| PPRPPLHPLRLL | 0.6651 ± 0.0013 |
| LPLYPFGLLLPL | 0.686 ± 0.043 |
| HPTSPDPLVTPL | 0.737 ± 0.068 |
| RSCPGSWFRLSV | 0.699 ± 0.12 |
| YAIINISRESLD | 0.717 ± 0.062 |
| KEGARGGEASRR | 0.669 ± 0.031 |

| Sequence | protein stability index |
| --- | --- |
| FVPQPFTPPSSF | 0.685 ± 0.065 |
| FTRFWTKANDPT | 0.6913 ± 0.0014 |
| HLPSPPPPPSRL | 0.744 ± 0.031 |
| SVWLISPRPLSV | 0.5639 ± 0.0032 |
| PPPLASLSPASP | 0.624 ± 0.05 |
| WRSLVTVSTTAC | 0.558 ± 0.042 |
| SAERLKIVNDRI | 0.753 ± 0.055 |
| PPPLLPPHPPGL | 0.701 ± 0.0096 |
| MVCSFVSLLGRF | 0.69 ± 0.01 |
| CEYPWGTVVRDG | 0.709 ± 0.045 |
| RRSVMLISNETR | 0.698 ± 0.038 |
| QWLGRDLKSREL | 0.691 ± 0.064 |
| FVPFVLFLLRPL | 0.582 ± 0.022 |
| TLGLLPDVCVEL | 0.683 ± 0.021 |
| FRGALFLLSSRV | 0.571 |
| CLPPSPASFHPL | 0.65 ± 0.056 |
| LLLRLAASSSLS | 0.703 ± 0.027 |
| SSVCPWACPPPP | 0.666 ± 0.1 |
| ERLSEYYPLIKC | 0.602 ± 0.044 |
| VDRRCTGLISSS | 0.668 ± 0.05 |
| QKNMVKKVENTR | 0.7637 ± 0.0067 |
| DRNGKIGTFKKV | 0.795 ± 0.12 |
| SETMFRLVADIT | 0.715 ± 0.011 |
| QSAFLFGFMSFW | 0.62 ± 0.025 |
| PLPPTAPPHPPP | 0.671 ± 0.096 |
| AILPFGLLPTHR | 0.745 ± 0.017 |

| Sequence | protein stability index |
| --- | --- |
| PCLQQCLLIFLP | 0.566 ± 0.015 |
| GVWVGAVRGRYG | 0.6625 ± 0.0061 |
| GRCWVMCSEGEK | 0.64 ± 0.057 |
| RDGYMVKVYGVK | 0.707 ± 0.1 |
| IQNTERIKIQTK | 0.6791 ± 0.0034 |
| PLRPPRPPPPPF | 0.726 ± 0.052 |
| RLSARRSVGGSA | 0.7097 ± 0.0051 |
| VVWLWGAGWGCD | 0.747 ± 0.022 |
| DNGVLVFLPVLD | 0.6791 ± 0.0066 |
| ASFSLSPFLPFS | 0.6854 ± 0.0068 |
| RRGAVVLVSPAL | 0.677 ± 0.021 |
| LQSPGAFFSVSK | 0.7 ± 0.018 |
| TYGRPICFSFKR | 0.701 ± 0.049 |
| GFSLLGPFAFWV | 0.688 ± 0.066 |
| SPSPRLSFFLPS | 0.727 ± 0.026 |
| RERRGPTDLKRH | 0.712 ± 0.041 |
| KKKKKSKKKTKT | 0.668 ± 0.0037 |
| VFVPARGAFHGL | 0.69 ± 0.018 |
| PSPVPSLPPFLP | 0.745 ± 0.13 |
| NEEVAKKKKIRV | 0.667 ± 0.061 |
